Results: publication PMC3206353

Assays:
Settings in all cases: remark: other sources report otherwise
[1] = molecular target: T1, pyrene-labeled ADP-actin filaments (chicken breast muscle actin) (chicken), P68139; assay: other fluorescence titration
[2] = molecular target: T1, pyrene-labeled ADP-actin filaments …; assay: other fluorescence titration; remark: listed apart in the source
[3] = molecular target: Mg-ATP-actin monomer (chicken breast muscle actin) (chicken), P68139; assay: inhibition of nucleotide exchange
[4] = molecular target: T1, pyrene-labeled ADP-actin filaments …; assay: stopped-flow fluorescence kinetics

B1: wild-type fission yeast cofilin, P78929 1-137 (natural protein)
chain: MSFSGVKVSPECLEAFQELKLGKSLRYVVFKMNDTKTEIVVEKKSTDKDFDTFLGDLPEKDCRYAIYDFEFNLGEGVRNKIIFISWSPDVAPIKSKMVYSSSKDTLRRAFTGIGTDIQATDFSEVAYETVLEKVTRK
modifications: here or on the partner: pyrene (pyrene iodoacetamide) on cysteine-374
B1 was tested, and the Kd [1] was 340 nM, the Ka of the cooperative model (Kd = 1/(ω*Ka)) [2] was 0.15 µM⁻¹ and the Kd [2] was 330 nM. For the same binder, the binding cooperativity ω [2] was 19.9, the Kd [3] was 80 nM and the kobs (3 µM cofilin, 1 µM filaments) [4] was 73.6 s⁻¹. For the same binder, the kon [4] was 1.25e+07 M⁻¹ s⁻¹.
